Assay results reported in publication PMC3176292, “Mutations in Protein-Binding Hot-Spots on the Hub Protein Smad3 Differentially Affect Its Protein Interactions and Smad3-Regulated Gene Expression” (PLoS ONE, 2011).

B1: Renilla luciferase-Smad3 Y226A (natural protein, UniProt P84022 1-425, looked up)
chain: MSSILPFTPPIVKRLLGWKKGEQNGQEEKWCEKAVKSLVKKLKKTGQLDELEKAITTQNVNTKCITIPRSLDGRLQVSHRKGLPHVIYCRLWRWPDLHSHHELRAMELCEFAFNMKKDEVCVNPYHYQRVETPVLPPVLVPRHTEIPAEFPPLDDYSHSIPENTNFPAGIEPQSNIPETPPPGYLSEDGETSDHQMNHSMDAGSPNLSPNPMSPAHNNLDLQPVTACEPAFWCSISYYELNQRVGETFHASQPSMTVDGFTDPSNSERFCLGLLSNVNRNAAVELTRRHIGRGVRLYYIGGEVFAECLSDSAIFVQSPNCNQRYGWHPATVCKIPPGCNLKIFNNQEFAALLAQSVNQGFEAVYQLTRMCTIRMSFVKGWGAEYRRQTVTSTPCWIELHLNGPLQWLDKVLTQMGSPSIRCSSVS
notes: Smad3; source: HEK-293, transfected together with constitutively active Alk5, in lysate
B2: Renilla luciferase-Smad3 Y298A (natural protein, UniProt P84022 1-425, looked up)
chain: MSSILPFTPPIVKRLLGWKKGEQNGQEEKWCEKAVKSLVKKLKKTGQLDELEKAITTQNVNTKCITIPRSLDGRLQVSHRKGLPHVIYCRLWRWPDLHSHHELRAMELCEFAFNMKKDEVCVNPYHYQRVETPVLPPVLVPRHTEIPAEFPPLDDYSHSIPENTNFPAGIEPQSNIPETPPPGYLSEDGETSDHQMNHSMDAGSPNLSPNPMSPAHNNLDLQPVTYCEPAFWCSISYYELNQRVGETFHASQPSMTVDGFTDPSNSERFCLGLLSNVNRNAAVELTRRHIGRGVRLYAIGGEVFAECLSDSAIFVQSPNCNQRYGWHPATVCKIPPGCNLKIFNNQEFAALLAQSVNQGFEAVYQLTRMCTIRMSFVKGWGAEYRRQTVTSTPCWIELHLNGPLQWLDKVLTQMGSPSIRCSSVS
notes: as for B1

Key:
Assay in all cases: co-IP; LUMIER: Renilla luciferase-Smad3 and Flag-tagged partner co-expressed with constitutively active Alk5 in HEK-293; Flag protein captured from cleared lysate (TNE: 10 mM Tris-HCl pH 7.8, 150 mM NaCl, 1 mM EDTA, 1% Igepal CA-630) on anti-Flag 96-well plates, 2 h at 4 °C; co-precipitated Renilla luciferase activity, TrxGA background subtracted, percent of wild-type Smad3
Settings in all cases: partners not purified
[1] = target: T1, Smurf2 Smad-binding domain (amino acids 252–330) on the Flag-thioredoxin scaffold (UniProt Q9HAU4 252-330)
T1 construct: Smurf2, amino acids 252–330; also called Smurf2 aa252–330; TrxSmurf2; source: HEK-293, transfected, in lysate

[2] = target: T2, SARA Smad-binding domain (amino acids 665–721) on the 3xFlag-thioredoxin scaffold (UniProt O95405 767-823)
T2 construct: SARA, amino acids 665–721; cloned into the unique RsrII site of pCI-3xFLAG-Trx; also called SARA aa665–721; TrxSARA; source: HEK-293, transfected, in lysate
T2 sequence (looked up): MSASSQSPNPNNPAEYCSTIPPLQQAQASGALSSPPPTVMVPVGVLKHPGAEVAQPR

[3] = target: T3, Flag-SARA, full length (UniProt O95405 1-1425)
T3 construct: SARA; plasmid pCMV5b-Flag-SARA; also called SARA FL; source: HEK-293, transfected, in lysate
T3 sequence (looked up): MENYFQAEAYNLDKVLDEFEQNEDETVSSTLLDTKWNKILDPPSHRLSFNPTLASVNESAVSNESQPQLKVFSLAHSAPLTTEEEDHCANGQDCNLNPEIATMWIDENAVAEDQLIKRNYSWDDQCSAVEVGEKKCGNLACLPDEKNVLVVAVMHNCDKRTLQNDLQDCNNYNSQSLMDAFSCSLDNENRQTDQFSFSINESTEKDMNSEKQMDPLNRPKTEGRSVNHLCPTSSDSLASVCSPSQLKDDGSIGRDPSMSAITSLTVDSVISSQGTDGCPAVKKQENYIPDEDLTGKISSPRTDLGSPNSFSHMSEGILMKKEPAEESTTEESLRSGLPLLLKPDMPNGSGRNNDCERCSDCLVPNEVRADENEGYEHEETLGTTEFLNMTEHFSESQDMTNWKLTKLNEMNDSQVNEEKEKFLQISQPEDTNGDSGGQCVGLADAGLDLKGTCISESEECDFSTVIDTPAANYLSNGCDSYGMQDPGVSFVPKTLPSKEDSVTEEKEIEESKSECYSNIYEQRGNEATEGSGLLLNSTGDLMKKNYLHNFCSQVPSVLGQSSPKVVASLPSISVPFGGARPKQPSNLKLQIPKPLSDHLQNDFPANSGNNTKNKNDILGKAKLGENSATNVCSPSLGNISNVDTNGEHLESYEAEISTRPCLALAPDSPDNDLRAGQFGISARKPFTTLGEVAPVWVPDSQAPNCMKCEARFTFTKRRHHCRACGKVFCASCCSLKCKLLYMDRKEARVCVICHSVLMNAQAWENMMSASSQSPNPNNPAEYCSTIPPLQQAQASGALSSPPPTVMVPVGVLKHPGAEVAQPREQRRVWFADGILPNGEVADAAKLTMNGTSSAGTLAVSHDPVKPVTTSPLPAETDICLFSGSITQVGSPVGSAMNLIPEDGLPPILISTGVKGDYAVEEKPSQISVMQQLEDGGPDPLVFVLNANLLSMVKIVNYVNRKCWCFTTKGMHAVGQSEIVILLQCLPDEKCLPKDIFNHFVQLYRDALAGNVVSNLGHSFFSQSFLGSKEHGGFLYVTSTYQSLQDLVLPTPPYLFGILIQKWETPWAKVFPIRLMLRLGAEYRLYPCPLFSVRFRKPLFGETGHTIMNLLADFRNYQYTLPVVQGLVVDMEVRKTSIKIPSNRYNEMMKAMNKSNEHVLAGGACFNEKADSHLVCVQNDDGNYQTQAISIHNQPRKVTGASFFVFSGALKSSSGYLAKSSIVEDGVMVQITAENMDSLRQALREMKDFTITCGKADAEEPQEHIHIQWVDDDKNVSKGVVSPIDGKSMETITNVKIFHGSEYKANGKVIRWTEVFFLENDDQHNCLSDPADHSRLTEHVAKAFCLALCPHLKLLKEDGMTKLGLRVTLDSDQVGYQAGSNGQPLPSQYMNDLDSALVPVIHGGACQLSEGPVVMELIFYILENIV

[4] = target: T4, Ski Smad-binding domain (amino acids 2–56) on the 3xFlag-thioredoxin scaffold (UniProt P12755 2-56)
T4 construct: Ski, amino acids 2–56; cloned into the unique RsrII site of pCI-3xFLAG-Trx; also called Ski aa2–56; TrxSki; source: HEK-293, transfected, in lysate
T4 sequence (looked up): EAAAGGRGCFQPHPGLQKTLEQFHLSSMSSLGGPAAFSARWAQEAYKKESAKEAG

T1 sequence (Q9HAU4 252-330): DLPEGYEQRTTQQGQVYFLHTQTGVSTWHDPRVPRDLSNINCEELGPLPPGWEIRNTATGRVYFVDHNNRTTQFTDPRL

Row | Binder | percent binding relative to wild-type Smad3 [1] | percent binding relative to wild-type Smad3 [2] | percent binding relative to wild-type Smad3 [3] | percent binding relative to wild-type Smad3 [4]
1 | B1 | 365% | 3% | 32% | 32%
2 | B2 | 144% | 73% | 150% | 271%
